Data reported in US20240409638A1 (AVACTA LIFE SCIENCES, published 2024).
Like-named read-outs stand apart in the source and are kept apart here.

Legend:
[1] = biological target: T1, PD-L1 on cells (NCI-H441 cells; aAPC PD-L1/CHO-K1 cells, Promega) (human, UniProt Q9NZQ7 19-290); assay: cell-based or functional assay
[2] = biological target: T1, PD-L1 on cells (NCI-H441 cells; aAPC …); assay: cell-based or functional assay; remark: listed apart in the source
[3] = biological target: T2, murine serum albumin (MSA) (murine, UniProt P07724 25-608); assay: SPR, Biacore, MSA amine-coupled on CM5; E. coli-produced format
T2 construct: Bought reagent

[4] = biological target: T3, human serum albumin (HSA) (human, UniProt P02768 25-609); assay: HSA binding ELISA: HSA coated, anti-cystatin A detection
T3 construct: The assays used bought HSA (Sigma #A37812 in the SPR work); also called HuSA

[5] = biological target: T1, PD-L1 on cells (NCI-H441 cells; aAPC …); assay: flow cytometry, % positive cells, aAPC PD-L1/CHO-K1 cells (overexpressing PD-L1)
Method: Lung cancer cell line (NCI-H441 (ATCC), CHO-K1 recombinant cell line overexpressing PD-L1 aAPC/CHO-K1 (Promega J1252)) and a negative cell line (CHO-K1, ATCC) were used to assess AFFIMER® agent binding capacity to PD-L1 by flow cytometry.
Briefly, 50 000 cells were added to each well of a 96-well microplate. After this step and each subsequent step, cells were washed twice with PBS+2 mM EDTA using 350g centrifugation for 3 minutes at 4° C. All steps were performed at 4° C. using assay buffer comprising 5% FBS, 2 mM EDTA and 0.05% sodium azide in PBS unless otherwise stated. Independent AFFIMER® agent dilutions were prepared in duplicate and added to the plates. […] Fixation was performed for 10 minutes at 4° C. with Fixation Buffer (Bio-techne FC004). Cells were resuspended in 100 ul assay buffer prior the acquisition of the data. 5000 events were collected by Flow cytometry (Millipore Guava 12HT). The results were gated on live cells and singlets (SSC-H vs SSC-A). The percentage of cells expressing PD-L1 bound by the AFFIMER® agent (positive cells) was determined by using as negative control (background) where the wells were stained with the AF488 conjugated secondary antibody only without AFFIMER® agent. The average of the duplicate wells was used to calculate EC₅₀ using a four-parameter non-linear regression curve fit using Graphpad Prism software. […]

[6] = biological target: T4, human PD-L1-Fc (R&D Systems) (human, UniProt Q9NZQ7 19-239); assay: human PD-L1-Fc binding ELISA: huPD-L1-Fc coated, anti-cystatin A detection
T4 construct: Bought reagent; also called huPD-L1-Fc; huPD-L1; not shown: Fc part of the bought fusion

[7] = biological target: T4, human PD-L1-Fc (R&D Systems); assay: SPR (Biacore) kinetics: human PD-L1-Fc immobilised on a CM5 chip, AFFIMER as analyte
[8] = biological target: T4, human PD-L1-Fc (R&D Systems); assay: as above; remark: listed apart in the source
[9] = biological target: T3, human serum albumin (HSA); assay: SPR (Biacore): immobilized ligand HSA (Sigma # A3782), AFFIMER as analyte, pH 7.0 by the legend
Method: For the HSA binding kinetic analysis, HSA (Sigma #A37812) was immobilized on a CM5 chip surface using amine coupling in 10 mM sodium acetate (pH 5.0) (Cytvia). […] The chip surface was regenerated with 3 mM NaOH for 20 seconds at a flow rate of 20 μl/min. The kinetic data was blank subtracted and fit to a 1:1 Langmuir binding model (BIAcore evaluation software; Cytiva).

[10] = biological target: T4, human PD-L1-Fc (R&D Systems); assay: SPR (Biacore 8K): human PD-L1-Fc amine-coupled on a CM5 chip, AFFIMER as analyte, 1:1 Langmuir fit
[11] = biological target: T4, human PD-L1-Fc (R&D Systems); assay: human PD-L1-Fc binding ELISA: huPD-L1-Fc coated, anti-cystatin A detection, with 10 µM HSA in the assay buffer
Method: Plates were washed and AFFIMER® polypeptides were detected using streptavidin-HRP for 30 min. After the last washing step, the TMB substrate was added for the development of the experiment and plates were read at 450 nm. The EC₅₀ was then calculated using the interpolated non-linear four-parameters standard curve.

[12] = biological target: T4, human PD-L1-Fc (R&D Systems); assay: SPR (Biacore) kinetics: human PD-L1-Fc immobilised on a CM5 chip, AFFIMER as analyte (column KD (pM), the same fit as the KD (M) column)
[13] = biological target: T4, human PD-L1-Fc (R&D Systems); assay: human PD-L1-Fc/HSA bridging ELISA: huPD-L1-Fc coated, AFFIMER titrated with 10 µM HSA, detection with HRP-conjugated anti-HSA antibody (the signal needs PD-L1 and HSA bound at once)
Method: After saturation with 5% casein/PBS buffer, the plates were washed and a dilution of AFFIMER® polypeptides or controls was incubated with HSA at a final concentration of 10 μM for 90 minutes. Plates were then washed, and a […] polyclonal antibody, anti-HSA (HRP-conjugated) (Abcam), was added for 90 minutes. After a last washing step, TMB was added for the development of the experiment and the plates were read at 450 nm. The EC₅₀ was then calculated using the interpolated non-linear four-parameters standard curve (FIG. 10).

T3 sequence (P02768 25-609): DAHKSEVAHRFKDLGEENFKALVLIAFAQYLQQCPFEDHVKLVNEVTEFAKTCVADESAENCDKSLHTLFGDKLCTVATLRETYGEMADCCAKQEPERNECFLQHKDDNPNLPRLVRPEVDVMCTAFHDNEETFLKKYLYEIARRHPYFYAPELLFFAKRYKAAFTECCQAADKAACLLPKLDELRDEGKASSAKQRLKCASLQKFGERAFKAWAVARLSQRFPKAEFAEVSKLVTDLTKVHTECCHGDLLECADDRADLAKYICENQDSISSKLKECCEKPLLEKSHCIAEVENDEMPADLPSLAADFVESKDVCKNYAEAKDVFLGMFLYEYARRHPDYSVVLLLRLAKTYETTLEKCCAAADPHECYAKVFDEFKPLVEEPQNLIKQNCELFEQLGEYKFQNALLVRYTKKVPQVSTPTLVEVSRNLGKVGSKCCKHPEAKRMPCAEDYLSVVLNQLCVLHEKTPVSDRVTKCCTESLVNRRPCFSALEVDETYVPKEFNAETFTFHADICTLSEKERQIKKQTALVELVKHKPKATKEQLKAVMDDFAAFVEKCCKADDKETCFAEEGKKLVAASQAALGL
T1 sequence (Q9NZQ7 19-290): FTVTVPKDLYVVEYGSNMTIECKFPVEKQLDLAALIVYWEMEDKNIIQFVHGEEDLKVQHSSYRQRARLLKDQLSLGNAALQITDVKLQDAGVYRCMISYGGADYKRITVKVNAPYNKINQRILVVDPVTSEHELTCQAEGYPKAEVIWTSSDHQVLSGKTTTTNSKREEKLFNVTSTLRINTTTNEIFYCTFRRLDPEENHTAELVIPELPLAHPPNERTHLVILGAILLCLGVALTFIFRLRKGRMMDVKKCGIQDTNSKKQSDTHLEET
T4 sequence (Q9NZQ7 19-239 limits assumed): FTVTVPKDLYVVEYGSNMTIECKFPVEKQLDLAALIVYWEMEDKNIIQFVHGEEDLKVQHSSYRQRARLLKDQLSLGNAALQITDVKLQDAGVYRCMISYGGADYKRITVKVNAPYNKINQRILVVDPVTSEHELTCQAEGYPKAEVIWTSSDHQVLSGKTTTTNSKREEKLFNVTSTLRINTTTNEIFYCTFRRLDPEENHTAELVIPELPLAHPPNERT

B1: Clone 80 XT35 (anti-PD-L1 type III AFFIMER® XT in-line fusion dimer XT) (designed binder)
chain: MIPGGLSEAKPATPEIQEIVDKVKPQLEEKTGETYGKLEAVQYKTQVVRRKHFPQWPGTNYYIKVRAGDNKYMHLKVFKSLDLQPREVFQEDLVLTGYQVDKNKDDELTGFAEAAAKEAAAKEAAAKEAAAKEAAAKEAAAKMIPGGLSEAKPATPEIQEIVDKVKPQLEEKTGETYGKLEAVQYKTQVVRRKHFPQWPGTNYYIKVRAGDNKYMHLKVFKSLDLQPREVFQEDLVLTGYQVDKNKDDELTGFAEAAAKEAAAKEAAAKEAAAKEAAAKEAAAKMIPRGLSEAKPATPEIQEIVDKVKPQLEEKTNETYGKLEAVQYKTQVLANFFQRRWPGSTNYYIKVRAGDNKYMHLKVFNGPWKFRNTDRGADRVLTGYQVDKNKDDELTGFHHHHHH
notes: Made in E. coli; Two Clone 80 units are fused to one HSA-41; also called XT35_1; ILF trimer format
With B1 the “half-maximal concentration of PD-1/PD-L1 blockade (% of inhibition, NFAT-luciferase reporter cells; IC50)” value [1] was 33.4 nM, the “IC50 of PD-1/PD-L1 blockade (% of inhibition, Promega NFAT-luciferase reporter cells)” value [2] was 131 nM and the Kd [3] was 269 nM. The EC50 [4] was 1.03 nM, the EC50 [5] was 0.036 nM and the EC50 [6] was 0.01 nM. The Kd [7] was 0.0686 nM, the koff [7] was 6.07e-05 s⁻¹ and the kon [7] was 884000 M⁻¹ s⁻¹. It also gave a Kd [8] of 0.0796 nM, a koff [8] of 0.000123 s⁻¹ and a kon [8] of 1.55e+06 M⁻¹ s⁻¹. The Kd [9] was 9.09 nM, the koff [9] was 0.00359 s⁻¹ and the kon [9] was 395000 M⁻¹ s⁻¹. For the same binder, the Kd [10] was 0.0391 nM, the EC50 [11] was 0.04 nM and the Kd [12] was 0.0796 nM. It also gave an EC50 [13] of 0.57 nM.
